Source: US20110110945A1, “Immunoglobulin Fusion Proteins and Methods of Making” (TransTech Pharma, Inc., priority 2007, published 2011)

Experiments:
Settings in all cases: ligand 5 micrograms per well; dilutions of initial fusion protein solution; FIG. 7
amphoterin = molecular target: T1, amphoterin (Homo sapiens, UniProt P09429); experiment: In vitro ligand binding assay (ELISA), immobilized amphoterin
T1 sequence (P09429 1-215): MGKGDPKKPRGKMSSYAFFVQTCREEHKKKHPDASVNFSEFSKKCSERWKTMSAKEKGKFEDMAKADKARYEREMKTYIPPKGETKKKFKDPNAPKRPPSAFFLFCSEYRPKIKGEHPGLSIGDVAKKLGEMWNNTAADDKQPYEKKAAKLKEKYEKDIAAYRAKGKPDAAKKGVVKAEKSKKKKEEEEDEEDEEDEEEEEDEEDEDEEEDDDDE
Procedure: (§1) For example, the fusion protein may be used in a binding assay to identify potential ligands that bind to the non-immunoglobulin protein. In one example embodiment of such a binding assay, a known ligand may coated onto a solid substrate (e.g., Maxisorb plates) at a biologically relevant concentration (e.g., about 5 micrograms per well), where each well contains a total volume of about 100 microliters (μL). The plates may be incubated at 4° C. overnight to allow the ligand to bind to the substrate. Alternatively, shorter incubation periods at higher temperature (e.g., room temperature) may be used. After a period of time to allow for the ligand to bind to the substrate, the assay wells may be aspirated and a blocking buffer (e.g., 1% BSA in 50 mM imidizole buffer, pH 7.2) may be added to block nonspecific binding. […] The fusion protein bound to the immobilized ligand may be detected in a variety of ways. […] The bound complex may be detected by adding a substrate for the secondary antibody complex, e.g., the alkaline phosphatase substrate, para-nitrophenylphosphate (PNPP), and measuring conversion of PNPP to para-nitrophenol (PNP) as an increase in absorbance at 405 nm. […] In the absence of ligand (i.e., coating with only BSA) there was no increase in absorbance. The binding assay of the present invention may be used to quantify ligand binding. […]

S100b = molecular target: T2, S100b (Homo sapiens, UniProt P04271); experiment: In vitro ligand binding assay (ELISA), immobilized S100b
T2 sequence (P04271 1-92): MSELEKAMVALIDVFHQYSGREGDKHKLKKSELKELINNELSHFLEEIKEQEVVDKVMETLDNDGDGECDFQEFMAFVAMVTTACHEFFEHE
Procedure: as §1

[1] = molecular target: T3, amyloid-beta (Amyloid Beta (1-40)) (Homo sapiens, UniProt P05067); experiment: In vitro ligand binding assay (ELISA), immobilized amyloid-beta
T3 construct: Amyloid Beta (1-40) from Biosource; purchased Biosource
Procedure: as §1

T3 sequence (P05067 672-711 limits assumed): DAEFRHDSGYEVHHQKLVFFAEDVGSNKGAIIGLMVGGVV

B1: TTP-3000: RAGE fusion protein: V domain of human RAGE (amino acids 1-136) linked to hinge-less CH2 and CH3 of human IgG1; SEQ ID NO: 17/19 (protein)
chain 1: MAAGTAVGAWVLVLSLWGAVVGAQNITARIGEPLVLKCKGAPKKPPQRLEWKLNTGRTEAWKVLSPQGGGPWDSVARVLPNGSLFLPAVGIQDEGIFRCQAMNRNGKETKSNYRVRVYQIPGKPEIVDSASELTAGPSVFLFPPKPKDTLMISRTPEVTCVVVDVSHEDPEVKFNWYVDGVEVHNAKTKPREEQYNSTYRVVSVLTVLHQDWLNGKEYKCKVSNKALPAPIEKTISKAKGQPREPQVYTLPPSRDELTKNQVSLTCLVKGFYPSDIAVEWESNGQPENNYKTTPPVLDSDGSFFLYSKLTVDKSRWQQGNVFSCSVMHEALHNHYTQKSLSLSPGK
chain 2: ENITARIGEPLVLKCKGAPKKPPQRLEWKLNTGRTEAWKVLSPQGGGPWDSVARVLPNGSLFLPAVGIQDEGIFRCQAMNRNGKETKSNYRVRVYQIPGKPEIVDSASELTAGPSVFLFPPKPKDTLMISRTPEVTCVVVDVSHEDPEVKFNWYVDGVEVHNAKTKPREEQYNSTYRVVSVLTVLHQDWLNGKEYKCKVSNKALPAPIEKTISKAKGQPREPQVYTLPPSRDELTKNQVSLTCLVKGFYPSDIAVEWESNGQPENNYKTTPPVLDSDGSFFLYSKLTVDKSRWQQGNVFSCSVMHEALHNHYTQKSLSLSPGK
modifications: synthetic three domain RAGE-Fc IgG fusion protein; synthetic three domain RAGE-Fc IgG fusion protein having signal sequence removed
specifically interact: binding to immobilized amphoterin (increase in absorbance at 405 nm) (amphoterin) | binding to immobilized S100b (increase in absorbance at 405 nm) (S100b) | binding to immobilized amyloid-beta (increase in absorbance at 405 nm) [1]
